Data from publication PMC3361975.

Assays:
[1] = substrate: NC(=O)c1ccc[n+]([C@@H]2O[C@H](COP(=O)(O)OP(=O)(O)OC[C@H]3O[C@@H](n4cnc5c(N)ncnc54)[C@H](O)[C@@H]3O)[C@@H](O)[C@H]2O)c1; test: purified protein; settings: co-substrate phosphite, 100 mM MOPS pH 7.25, 30 °C
[2] = substrate: O=[PH](O)O; test: purified protein; settings: co-substrate NAD+, 100 mM MOPS pH 7.25, 30 °C

Protein	Km [1]	kcat [1]	Km [2]	kcat [2]
PTDH ortholog from R. metallidurans (Cupriavidus metallidurans CH34) (protein) MNHRKIVVTQPVHEEVLRKLQAEGEVIMNPGPDPWSPSQLREYLVDADAMMAFMTDSVTKESLLNAPRLKTISCALKGYDNFDLRACAQAGVSVTFVPDLLTEPTAELAIGLAIAAGRNVLQGDAATRAGYSGWRPALYGTGLHGSVASVIGLGKVGQAILARLAGFGCARLLGVDPSVRLDQVELVTLDEAVSTSDYVFLAVPLVSDTRHLVDSRMLQLSKKGQILVNVGRGSVVDERAVVDALANEQLGAYAADVYEMEDWLLPDRPREIHPGLTNNARTVLTPHIGSAVRRVRFEIEMRAAENLVRSLRGESLSDVAVEASAAA	4.5 (0.9) μM	6.83 (0.43) s^-1	54.9 (6.8) μM	6.83 (0.43) s^-1
wt-PTDH (P. stutzeri) (Stutzerimonas stutzeri) (protein) MLPKLVITHRVHDEILQLLAPHCELMTNQTDSTLTREEILRRCRDAQAMMAFMPDRVDADFLQACPELRVVGCALKGFDNFDVDACTARGVWLTFVPDLLTVPTAELAIGLAVGLGRHLRAADAFVRSGEFQGWQPQFYGTGLDNATVGILGMGAIGLAMADRLQGWGATLQYHEAKALDTQTEQRLGLRQVACSELFASSDFILLALPLNADTQHLVNAELLALVRPGALLVNPCRGSVVDEAAVLAALERGQLGGYAADVFEMEDWARADRPRLIDPALLAHPNTLFTPHIGSAVRAVRLEIERCAAQNIIQVLAGARPINAANRLPKAEPAAC	52.2 (3.3) μM	6.57 (0.03) s^-1	81.1 (1.6) μM	6.57 (0.03) s^-1
PTDH ortholog from N. punctiforme (Nostoc punctiforme PCC 73102) (protein) MKPKVVITHWVHPEIITNLSEYCEVVANPTRETLPREEILKLAQDAEALMVFMPDRIDEAFLKACPKLKIIAGALKGYDNFDVDACTRQGIWFTIVPSLLAVPTAELTIGLIIGLARQMLLGDRLIRQGTFAGWRPHLYGMGLANRTLGIVGMGSLGQALAQRLSSFEMNLIYTDAIPLPKEKAAAWCLSQVSLDTLLATSDFVVLMVPLQPETFHLINEKSLARMKPGSFLINPCRGSVVDEQAVSDALASGHLAGYAADVFELEDWARSDRPSKIPPSLLEKQDQTFFTPHLGSAVDDLRYDIAIEASQNILQVLQGHSPQGAINCPS	19.4 (1.6) μM	3.36 (0.03) s^-1	25.4 (1.2) μM	3.36 (0.03) s^-1
